Experimental findings from US20100093076A1, “SOLUBLE IL-27 RECEPTOR” (priority 2006, published 2010) are described below.

For one assay, the target named is T1, muIL-27 (Mus musculus, UniProt O35228+Q8K3I6).
T1 construct: purchased R&D Systems
T1 sequence (Q8K3I6 29-234): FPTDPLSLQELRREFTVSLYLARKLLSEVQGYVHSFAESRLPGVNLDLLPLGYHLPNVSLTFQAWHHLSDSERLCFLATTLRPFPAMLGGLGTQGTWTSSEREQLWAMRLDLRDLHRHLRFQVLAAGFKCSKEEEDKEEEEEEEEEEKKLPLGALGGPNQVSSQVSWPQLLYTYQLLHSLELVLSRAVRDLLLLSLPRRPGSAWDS
T1 sequence (O35228 19-228): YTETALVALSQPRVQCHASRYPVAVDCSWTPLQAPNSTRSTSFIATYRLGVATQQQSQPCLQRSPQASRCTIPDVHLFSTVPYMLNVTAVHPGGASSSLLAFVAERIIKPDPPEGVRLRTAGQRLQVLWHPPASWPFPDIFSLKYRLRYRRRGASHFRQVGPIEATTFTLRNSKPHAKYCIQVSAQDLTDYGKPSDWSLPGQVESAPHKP
Description: Phospho-STAT3 (BIO-PLEX) neutralization of IL-27 by soluble receptors, mouse spleens. The settings on record: ligand muIL-27 at EC90 (0.2 nM). The class given is cell-based. The source says: Whole mouse spleens were harvested from C57 B1/6 mice and washed two times with 1×PBS before being plated out at 2×10^5 cells/well in assay media (RPMI 1640 plus 10% fetal bovine serum) in 96-well, round-bottom tissue culture plates. Total human PBMC (peripheral blood mononuclear cells) were thawed from a frozen vial collected from a leukapherisis donation and washed two times with 1×PBS before being plated out at 10^6 cells/well in assay media in 96-well, round-bottom tissue culture plates. […] Following pre-incubation, treatments were added to the plates containing the cells and incubated together at 37° C. for 15 minutes.
Following incubation, cells were washed with ice-cold wash buffer (BIO-PLEX Cell Lysis Kit, BIO-RAD Laboratories, Hercules, Calif.) and put on ice to stop the reaction according to manufacturer's instructions. […]
Capture beads (BIO-PLEX Phospho-Stat3 Assay, BIO-RAD Laboratories) were combined with 50 μL of 1:1 diluted lysates and added to a 96-well filter plate according to manufacture's instructions (BIO-PLEX Phosphoprotein Detection Kit, BIO-RAD Laboratories). […] After the final wash, beads were resuspended in 125 μL/well of bead suspension buffer, shaken for 30 seconds, and read on an array reader (BIO-PLEX, BIO-RAD Laboratories) according to the manufacture's instructions. Data were analyzed using analytical software (BIO-PLEX MANAGER 3.0, BIO-RAD Laboratories). […]

The target in assay [1] is T2, mouse ligand (single-chain IL27: EBI3 linked to IL-27 p28) (Mus musculus, UniProt O35228+Q8K3I6).
T2 construct: purchased R&D Systems
T2 sequence (O35228+Q8K3I6 with tags, fused parts or gaps): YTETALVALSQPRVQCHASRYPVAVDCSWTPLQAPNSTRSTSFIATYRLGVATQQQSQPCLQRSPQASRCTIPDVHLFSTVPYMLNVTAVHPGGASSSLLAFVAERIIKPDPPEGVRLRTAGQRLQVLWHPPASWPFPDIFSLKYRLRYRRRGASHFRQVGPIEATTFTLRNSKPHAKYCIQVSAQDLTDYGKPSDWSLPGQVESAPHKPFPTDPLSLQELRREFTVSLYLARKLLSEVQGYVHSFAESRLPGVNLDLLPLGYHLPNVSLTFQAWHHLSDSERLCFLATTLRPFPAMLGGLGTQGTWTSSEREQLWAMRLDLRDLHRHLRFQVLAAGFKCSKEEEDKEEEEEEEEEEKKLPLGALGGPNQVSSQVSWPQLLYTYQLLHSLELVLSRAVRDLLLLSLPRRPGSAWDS
Put plainly: Surface plasmon resonance (BIACORE 3000) kinetic rate and affinity constants. The settings on record: SPR. The class given is binding. Here is the method:
Kinetic rate and affinity constant values for the mouse (IL27RAm(mFc1), Example 1) and human (IL27RA-Fc5, Example 2) soluble receptors were obtained by surface plasmon resonance (SPR) using an automated instrument (BIACORE 3000; Biacore International AB, Uppsala, Sweden). The mouse soluble receptor was tested against mouse ligand (lot A1418F), and the human soluble receptor was tested against both mouse (A1426F) and human (A1534F) ligands. For determination of the kinetic rate constants for the receptor-ligand interactions, the gp130 molecule was not included as part of the receptor complex.
The IL27 ligands used in this study were single-chain molecules comprising EBI3 connected by its C-terminus to the N-terminus of IL-27 p28 via a polypeptide linker. (R&D Systems) Each of the ligands included an amino-terminal peptide tag.
For the mouse IL27RA study, the soluble receptor was captured onto the chip surface by an isotype-specific anti-mouse Fc antibody (obtained from Jackson ImmunoResearch Laboratories, Inc., West Grove, Pa.) covalently immobilized to the chip (BIACORE CM5 chip) using the standard amine coupling protocol specified by the instrument manufacturer. For the human IL27RA studies, the soluble receptor was directly and covalently immobilized to the chip via the amine coupling protocol. In all studies, ligand was injected over the active (receptor-bound) surface at varying concentrations to obtain a series of binding curves.
Experimental conditions were optimized for determination of kinetic rate constant values. The molecular densities of the soluble receptor protein loaded onto the chip surface were targeted to obtain maximum IL27 binding levels (Rmax) of ≦20 RU. The analyte (ligand) was injected over the receptor surface at a flow rate of […] at a concentration range of approximately 0.05 to 10 nM, allowing for an association phase of 3 minutes and a dissociation phase of 10 minutes. […]
All data were assessed using software provided with the instrument (BIACORE Evaluation software v. 3.2). […]
In general terms: SPR reads the build-up and loss of mass on a sensor chip optically.

B1: IL-27RAm(mFc1): Extracellular domain of mouse IL27RA fused to a wild type BALB/c mouse gamma2a constant region Fc tag (protein)
chain: MNRLERVALARLETPRLEGLLELELESLEMSLELELEGTRPRHGSPRGPRLEQCYSVGPRLEGILENCSWGLPRLEGDLEGLTPRPRVLEYHQSQKYHPRNRVWGLVKVPRSKQSWVTIPRRGLQFTMADKLELEIWGTQKGRPRLEWSSVSVASNLEGLTQMKPRDTPRQIFSQVASPISGLGLATLEGLATVQWAPRPRVWPRPRQKALETCQFRYKGLCQAGLAWTRLEGLPRQLEKTDGLETPRVGLMQNLEGLPRGTCYQVSGRCQVGLNGYPRWGGLWSSPRLESFQTPRFLEDPRGLDVWVSGTVCGLTSGKRAALELEVWKDPRRPRCVQVTYTVWFGAGDITTTQGLGLVPRCCKSPRVPRAWMGLWAVVSPRGNSTSWVPRPRTNLESLEVCLEAPRGLSAPRCDVGVSSADGSPRGIKVTWKQGTARGSPRLEGLYVVASPWAQDGDSLEDKLENWTRLEPRPRGNLESTLELEPRGGLFKGGVPRYRITVTAVYSGGLEAAAPRSVWGFRGLGLLEVPRLEAGPRAVWRLEPRDDPRPRGTPRVVALAWGGLVPRRHQLERGQATHYTFCIQSRGLESTVCRNVSSQTQTATLEPRNLEHSGSFKLEWVTVSTVALAGQGPRPRGPRDLESLEHLEPRDNRIRWKALEPRWFLESLEWGLELELEMGCGLESLEASTRCLEQARCLEHWRHKLELEPRQWIWGLRVPRDPRANSNSGQPRYIKGLVSLEPRQPRPRKDGPRILEGLVGLGLVGLLEQPRVVGLSPRKASAPRIYSGYGLKHFLEPRTPRGLGLLEGLELEV
modifications: left off: a dimerising Fc or GST
notes: Extracellular domain of mouse IL27RA fused to a wild type BALB/c mouse gamma2a constant region Fc tag
Broadly, the IC50 is the concentration at which inhibition is half-maximal. Usually Kd stands for the equilibrium constant for the complex coming apart. Consider B1, for which the concentration for half-maximal inhibition (IC50) with muIL-27 turned out to be 180 pM. Further, in assay [1] (1:1 binding model), the ka is 1e+07 M⁻¹ s⁻¹ and the kd worked out at 0.0012 s⁻¹. In assay [1] (Kd=kd/ka), this molecule yielded a dissociation constant (Kd) of 120 pM.
